The target in one experiment is SARS-CoV2病毒的囊膜蛋白SPIKE (SARS-CoV2, UniProt P0DTC2 14-1273). Put plainly: cell-based or functional assay.
In experiment [1] the target is T1, SARS-CoV2病毒表面SPIKE蛋白的RBD结构域 (SARS-CoV2, UniProt P0DTC2 319-541). Put plainly: Biacore (SPR), recombinant antibody against RBD.
In experiment [2] the target is T1, SARS-CoV2病毒表面SPIKE蛋白的RBD结构域. Put plainly: Biacore blocking experiment, antibody of the hybridoma clone. (In general: SPR reads the build-up and loss of mass on a sensor chip optically.)

Changes are numbered by the printed parent chain. A value given as a limit tells only on which side of the number the result lay.

B1: DK15 (antibody, V domains shown)
VH: QVQLQQPGAEFVMPGASVKMSCKASGYTFTDYWMHWVKQRPGQGLEWIGAIDTSDTYTRYNQKFKDKATLTVDESSSTAYMQLSSLTSEDSAVYYCARFLYYYGNPTFDYWGQGTTLTVSS
VL: DVQITQSPSYLAASPGETITINCRASKSISKYLAWYQEKPGKTNKLLIYSGSTLQSGIPSRFSGSGSGTDFTLTISSLEPEDFAMYYCQQHNEYPLTFGAGTKLELK
Take B1: in the experiment with SARS-CoV2病毒的囊膜蛋白SPIKE, the “EC50(nM), 阻断假病毒感染 (GFP阳性细胞)” value turned out to be 1.27 nM and the “EC50(μg/mL), 阻断假病毒感染 (GFP阳性细胞)” value amounted to 0.191 µg/mL.

B2: DK2 (antibody, V domains shown)
VH: QVQLQQPGAELVKPGASVKMSCKASGYTFISYSMHWVKQTPGQGLEWIGAIYPGNGDTSYTQKFKGKATLTADKSSTTAYMQLSSLTSEDSAVYYCARDHGNYVLDYWGQGTTLTVSS
VL: DIVMTQSHKFMSTSVGDRVSITCKASQDVGTAVAWYQQKPGQSPKLLIYWASTRHTGVPDRFTGSGSGTDFTLTISNVQSEDLADYFCQQYSSYPWTFGGGTKLEIK
Broadly, the Kd is the concentration at which binding is half-saturated. On to B2, for which, in the experiment with SARS-CoV2病毒的囊膜蛋白SPIKE, the “EC50(nM), 阻断假病毒感染 (GFP阳性细胞)” value was determined as 0.083 nM and the “EC50(μg/mL), 阻断假病毒感染 (GFP阳性细胞)” value is 0.012 µg/mL. Moreover, the equilibrium dissociation constant (Kd) in experiment [1] is under 1000 pM. Besides, in experiment [2], the 阻断率 was at least 60%.

B3: DK14 (antibody, V domains shown)
VH: QVQLQQPGAELVKPGASVKLSCKASGYTFISYWMHWVKQRPGQGLEWIGEIDPSDSYTNSNQKFKGKATLTVDKSSSTAYMQLSSLTSEDSAVYYCARSELWAMDYWGQGTSVTVSS
VL: DIVMTQAAFSNPVTLGTSASISCRSSKSLLHSHGITYLYWYLQKPGQSPQLLIYQMSNLASGVPDRFSSSGSGTDFTLRISRVEAEDVGVYYCAQNLELPWTFGGGTKLEIR
For the molecule B3, in the experiment with SARS-CoV2病毒的囊膜蛋白SPIKE, the “EC50(nM), 阻断假病毒感染 (GFP阳性细胞)” value amounted to 0.41 nM and the “EC50(μg/mL), 阻断假病毒感染 (GFP阳性细胞)” value worked out at 0.062 µg/mL.

B4: DK5 (antibody, V domains shown)
VH: QVQLQQPGAELVKPGASVKMSCKASGYTFTSYSMHWVKQTPGQGLEWIGAIYPGNGDTSYNQKFKGKATLTADKSSSTAYMQLSSLTSEDSAVYYCARDYHYDGYYVTLDYWGQGTTLTVSS
VL: DIQMTQSPSSLSASLGERVSLTCRASQEISGYLSWLQQKPDGTIKRLIYAASTLDSGVPKRFSGSRSGSDYSLTISSLESEDFADYYCLQYASYPWTFGGGTKLEIK
In the case of B4, in the experiment with SARS-CoV2病毒的囊膜蛋白SPIKE, the “EC50(nM), 阻断假病毒感染 (GFP阳性细胞)” value worked out at 0.1 nM and the “EC50(μg/mL), 阻断假病毒感染 (GFP阳性细胞)” value was 0.015 µg/mL. The dissociation constant Kd in experiment [1] was under 1000 pM. In experiment [2], this molecule displayed a 阻断率 of at least 60%.

B5: DK10 (antibody, V domains shown)
VH: B4 VH with N61T, S84N
VL: B4 VL
For B5, in the experiment with SARS-CoV2病毒的囊膜蛋白SPIKE, the “EC50(nM), 阻断假病毒感染 (GFP阳性细胞)” value amounted to 1.63 nM and the “EC50(μg/mL), 阻断假病毒感染 (GFP阳性细胞)” value turned out to be 0.245 µg/mL.

B6: DK7 (antibody, V domains shown)
VH: B4 VH
VL: B4 VL
For B6, in the experiment with SARS-CoV2病毒的囊膜蛋白SPIKE, the “EC50(nM), 阻断假病毒感染 (GFP阳性细胞)” value came out at 0.47 nM and the “EC50(μg/mL), 阻断假病毒感染 (GFP阳性细胞)” value is 0.071 µg/mL.

B7: DK6 (antibody, V domains shown)
VH: B4 VH with A9T, M34I
VL: B4 VL
For B7, in the experiment with SARS-CoV2病毒的囊膜蛋白SPIKE, the “EC50(nM), 阻断假病毒感染 (GFP阳性细胞)” value was 0.47 nM and the “EC50(μg/mL), 阻断假病毒感染 (GFP阳性细胞)” value is 0.071 µg/mL. The Kd in experiment [1] is under 1000 pM. The same molecule yielded a 阻断率 in experiment [2] of at least 60%.

B8: DK11 (antibody, V domains shown)
VH: EVQLQQSGPELVKPGASVKISCKASGYSFTGYFMNWVKQSHGKSLEWIGRINPYNGDTFYNQKFKGKATLTVDKSSSTAHMELLSLTSEDSAVYYCGRGYLDYWGQGTTLTVSS
VL: DIVMTQSHKFMSTSVGDRVSITCKASQDVSTAVAWYQQKPGQSPKLLIFSASYRYTGVPDRFTGSGSGTDFTFTISSVQAEDLAVYYCQEHYSNPYTFGGGTKLEIK
As to B8, in the experiment with SARS-CoV2病毒的囊膜蛋白SPIKE, the “EC50(nM), 阻断假病毒感染 (GFP阳性细胞)” value came to 0.34 nM and the “EC50(μg/mL), 阻断假病毒感染 (GFP阳性细胞)” value was 0.051 µg/mL.

For the origin of these results see patent CN111978395A (UNIV SICHUAN, dated 2020).
